For three molecules, binding result and Kd results are on record in patent publication US20220242962A1 (APTEVO RESEARCH AND DEVELOPMENT, published 2022).

By Kd is commonly meant the free concentration of one partner at which half of the binding sites on the other are occupied at equilibrium, for simple one-to-one binding.

Test [1] addresses T1, C1Q (UniProt P02745 23-245; P02746 28-253; P02747 29-245).
T1 construct: also called complement C1Q
Nature of the test: SPR, Fc captured, C1Q as analyte. As to the method:
(§1) Fc mutations to be potentially integrated into an ADAPTIR™ bispecific construct were analyzed for binding to the common Fc receptors (human and cyno) and C1Q, which is a component of the complement activation system. SPR experiments were conducted at 25° C. in HBS-EP+ buffer on a Biacore T200 system.
(§2) For these experiments, all four flow cells of a CM5 sensor chip were immobilized with goat F(ab′)2 anti-human Fc (Jackson ImmunoResearch) to a response level of ˜4000 RU. Fc variants and wild type Fc were diluted to 100 nM in HBS-EP+ and captured on the surface of the chip for 120 seconds at a flow rate of 10 μL/min. Fcγ receptors (human and cyno, all purchased from R&D Systems) and complement (C1Q, purchased from Quidel Corporation and Complement Technology, Inc) were diluted in HBS-EP+ and then flowed as analytes at 30 μL/min for 120 seconds followed by a 120 seconds dissociation. Regeneration was achieved by flowing 10 mM glycine pH 1.7 at 30 μL/min for 30 seconds followed by a 60 seconds stabilization. Flow cell 1 was always left as a blank (no captured protein) for purposes of background signal subtraction. Blank-subtracted sensorgrams for each captured Fc variant were inspected for the presence of binding to any of the Fcγ receptor proteins or complement. There are polymorphisms in the Human Fc receptors IIA and RIIIA, so both sequences were tested for binding.

Test [2] concerns the target T2, Fc gamma receptor RI (human, UniProt P12314 16-288).
T2 construct: also called FcγRI
Nature of the test: SPR, Fc captured, receptor as analyte. As to the method: as §1, §2
For orientation: SPR reads the build-up and loss of mass on a sensor chip optically.

The target in test [3] is T3, Fc gamma receptor RIIA H167 (human, UniProt P12318 36-218).
T3 construct: soluble SPR analyte
T3 sequence (looked up): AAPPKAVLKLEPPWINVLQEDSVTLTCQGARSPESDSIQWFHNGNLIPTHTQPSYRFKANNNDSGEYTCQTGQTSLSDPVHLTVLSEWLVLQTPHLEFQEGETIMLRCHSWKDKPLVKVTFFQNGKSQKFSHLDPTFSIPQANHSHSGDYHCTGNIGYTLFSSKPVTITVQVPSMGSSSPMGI
Nature of the test: SPR, Fc captured, receptor as analyte. On the procedure:
as §1, §2

Test [4] addresses T4, Fc gamma receptor RIIB/C (human, UniProt P31994 46-217).
T4 construct: soluble SPR analyte
T4 sequence (looked up): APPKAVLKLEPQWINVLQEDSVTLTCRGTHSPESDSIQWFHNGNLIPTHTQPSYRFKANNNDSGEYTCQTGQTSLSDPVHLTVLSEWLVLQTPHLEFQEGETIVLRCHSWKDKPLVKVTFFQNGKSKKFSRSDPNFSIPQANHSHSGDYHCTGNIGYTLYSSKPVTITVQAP
Nature of the test: SPR, Fc captured, receptor as analyte. As to the method: as §1, §2

Test [5] has as its target T5, Fc gamma receptor RIIIA V176 (human, UniProt P08637 17-208).
T5 construct: soluble SPR analyte
Nature of the test: SPR, Fc captured, receptor as analyte. As to the method: as §1, §2

For test [6], the target named is T6, Fc gamma receptor RIIIB (human, UniProt O75015 17-200).
T6 construct: soluble SPR analyte
T6 sequence (O75015 17-200): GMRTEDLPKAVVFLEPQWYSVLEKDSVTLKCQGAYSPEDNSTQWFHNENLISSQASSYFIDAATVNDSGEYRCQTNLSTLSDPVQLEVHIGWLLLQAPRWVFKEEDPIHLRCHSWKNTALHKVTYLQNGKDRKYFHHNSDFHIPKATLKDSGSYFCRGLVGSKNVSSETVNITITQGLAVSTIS
Nature of the test: SPR, Fc captured, receptor as analyte. As to the method: as §1, §2

In test [7] the target is T7, Cyno RIII (cynomolgus monkey, UniProt Q8SPW2 17-208).
T7 construct: extracellular domain
T7 sequence (Q8SPW2 17-208): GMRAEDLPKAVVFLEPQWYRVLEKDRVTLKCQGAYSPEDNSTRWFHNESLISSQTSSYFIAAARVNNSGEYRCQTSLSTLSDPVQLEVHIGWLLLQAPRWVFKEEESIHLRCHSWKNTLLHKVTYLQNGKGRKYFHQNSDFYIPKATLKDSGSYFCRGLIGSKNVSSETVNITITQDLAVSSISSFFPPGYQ
Briefly: SPR, Fc captured, receptor as analyte. On the procedure: as §2

Test [8] concerns the target T8, Fc gamma receptor RI on CHO-K1SV cells (human, UniProt P12314 16-374).
T8 construct: whole, on cells; also called FcγR1 cells
Briefly: flow cytometry, CHO-K1SV transfectants. On the procedure:
(§3) CHO-K1SV cells stably transfected with a series of FcγR receptors were incubated with each of the […] listed in Table 23. A typical experiment labeled approximately 100,000 cells per well, in 96-well plates, with a range of binding molecule concentrations of 1 to 1000 nM, in 100 μl of PBS buffer with 0.2% BSA and 2 mM EDTA, for 30 minutes on ice, followed by washes and incubation with PE-labeled minimum cross species reactive secondary antibody, goat anti-human IgG Fcγ, F(ab′)2 ([…]) for 30 minutes to 1 hour on ice. Signal from bound molecules was detected using a LSR-II™ flow cytometer (BD Biosciences) and analyzed by FlowJo flow cytometry analysis software. Mean fluorescence intensity (MFI) of bound molecules on cells was determined after exclusion of doublets.
On the technique in general: A flow cytometer gives signals particle by particle.

The target of test [9] is T9, Fc gamma receptor RIIA H131 on CHO-K1SV cells (human, UniProt P12318 34-317).
T9 construct: whole, on cells
T9 sequence (looked up): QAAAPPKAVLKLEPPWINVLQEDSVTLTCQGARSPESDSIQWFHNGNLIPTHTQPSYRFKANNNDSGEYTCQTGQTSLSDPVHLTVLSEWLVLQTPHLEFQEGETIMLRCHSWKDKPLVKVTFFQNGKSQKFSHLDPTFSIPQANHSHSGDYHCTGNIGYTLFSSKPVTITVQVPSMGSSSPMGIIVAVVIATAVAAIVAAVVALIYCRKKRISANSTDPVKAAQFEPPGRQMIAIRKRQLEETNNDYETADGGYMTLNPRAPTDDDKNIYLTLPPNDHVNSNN
Briefly: flow cytometry, CHO-K1SV transfectants. On the procedure:
as §3

Test [10] deals with T10, Fc gamma receptor RIIB/C on CHO-K1SV cells (human, UniProt P31994 43-310).
T10 construct: whole, on cells
T10 sequence (looked up): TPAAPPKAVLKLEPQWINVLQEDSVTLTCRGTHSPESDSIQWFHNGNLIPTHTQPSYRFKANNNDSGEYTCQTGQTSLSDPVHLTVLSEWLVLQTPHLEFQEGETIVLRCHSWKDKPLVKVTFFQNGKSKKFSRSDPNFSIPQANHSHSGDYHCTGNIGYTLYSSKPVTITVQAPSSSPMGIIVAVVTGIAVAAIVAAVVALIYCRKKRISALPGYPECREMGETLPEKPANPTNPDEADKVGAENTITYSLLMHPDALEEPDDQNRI
Nature of the test: flow cytometry, CHO-K1SV transfectants. As to the method: as §3

Test [11] deals with T11, Fc gamma receptor RIIIA F158 on CHO-K1SV cells (human, UniProt P08637 17-254).
T11 construct: whole, on cells
T11 sequence (P08637 17-254): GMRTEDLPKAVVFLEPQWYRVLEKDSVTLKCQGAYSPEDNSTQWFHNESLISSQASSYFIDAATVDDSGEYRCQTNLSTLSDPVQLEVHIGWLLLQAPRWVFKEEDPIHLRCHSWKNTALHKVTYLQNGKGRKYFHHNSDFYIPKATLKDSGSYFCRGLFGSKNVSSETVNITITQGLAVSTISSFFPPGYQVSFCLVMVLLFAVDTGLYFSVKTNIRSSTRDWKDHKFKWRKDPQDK
Nature of the test: flow cytometry, CHO-K1SV transfectants. On the procedure:
as §3

Test [12] addresses T12, Fc gamma receptor RIIIA V158 on CHO-K1SV cells (human, UniProt P08637 17-254).
T12 construct: whole, on cells
Briefly: flow cytometry, CHO-K1SV transfectants. On the procedure:
as §3

Test [13] deals with T13, Fc gamma receptor RIIIB on CHO-K1SV cells (human, UniProt O75015 17-200).
T13 construct: whole, on cells
T13 sequence (O75015 17-200): as the sequence (O75015 17-200) above
Briefly: flow cytometry, CHO-K1SV transfectants. As to the method:
as §3

Test [14] has as its target T14, Recombinant FcRn/b2M protein (human, UniProt P55899 24-297; P61769 21-119, limits assumed).
T14 construct: also called hFcRn/b2M; neonatal Fc receptor
Nature of the test: SPR pH 6.0, FcRn/b2M immobilized, two-state reaction model. On the procedure: Recombinant FcRn/b2M protein was generated via transient transfection of HEK-293 cells with a bi-cistronic vector containing the genes for both FcRn and […]. The complex was purified using IMAC chromatography and subsequently buffer exchanged into IMAC elution buffer after verifying purity of the IMAC eluate by analytical SEC. hFcRn/b2M at 10 μg/ml in 10 mM sodium acetate (pH 4.5) was immobilized on a CM5 chip by direct amine coupling chemistry to a level of ˜600 RU. A reference flow cell was left blank.
Different concentrations of the Fc variant protein (5-80 nM by 2-fold dilutions in pH 6.0 running buffer) including running buffer as blank were injected in randomized order at 30 μL/min for 180 seconds followed by a 120 second dissociation period.
Sensorgrams obtained from kinetic SPR measurements were analyzed by the double subtraction method. The signal from the reference flow cell was subtracted from the analyte binding response obtained from flow cell with immobilized ligands. Buffer reference was subtracted from analyte binding responses, and the final double-referenced data were analyzed with Biacore T200 Evaluation software (2.0, GE), globally fitting data to derive kinetic parameters. All sensorgrams were fitted using two-state reaction model, as described in Weirong Wang et al, DrugMetab Dispos.: 39(9): 1469-77 (2011).

For test [15], the target named is T15, Fc gamma receptor RIIA R167 (human, UniProt P12318 36-218).
T15 construct: soluble SPR analyte
T15 sequence (looked up): T3 sequence (looked up) with H132R
Nature of the test: SPR, Fc captured, receptor as analyte, relative to wild type Fc. On the procedure:
as §1, §2

Test [16] concerns the target T5, Fc gamma receptor RIIIA V176. The description is as above. On the procedure: as §1, §2

Residue numbers refer to the chain shown, from its start. In names and notes the source's numbering stands.

T8 sequence (P12314 16-374): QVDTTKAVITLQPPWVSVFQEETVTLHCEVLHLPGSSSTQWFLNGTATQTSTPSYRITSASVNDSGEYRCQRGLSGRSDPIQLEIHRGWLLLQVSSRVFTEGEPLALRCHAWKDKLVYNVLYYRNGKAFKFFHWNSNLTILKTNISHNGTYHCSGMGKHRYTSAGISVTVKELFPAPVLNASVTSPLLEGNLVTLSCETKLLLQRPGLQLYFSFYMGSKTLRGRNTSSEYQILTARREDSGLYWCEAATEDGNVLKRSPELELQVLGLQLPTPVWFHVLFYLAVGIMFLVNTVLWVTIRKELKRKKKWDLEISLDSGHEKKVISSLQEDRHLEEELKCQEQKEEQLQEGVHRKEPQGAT
T1 sequence (P02745 23-245 limits assumed, chain 1 of 3): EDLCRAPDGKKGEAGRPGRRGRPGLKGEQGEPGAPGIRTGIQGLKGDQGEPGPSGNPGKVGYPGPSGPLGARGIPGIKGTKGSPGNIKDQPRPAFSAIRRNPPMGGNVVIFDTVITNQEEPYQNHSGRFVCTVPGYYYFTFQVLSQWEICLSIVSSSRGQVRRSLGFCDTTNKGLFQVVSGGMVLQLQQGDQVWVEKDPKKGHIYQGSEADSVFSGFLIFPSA
T1 sequence (P02746 28-253 limits assumed, chain 2 of 3): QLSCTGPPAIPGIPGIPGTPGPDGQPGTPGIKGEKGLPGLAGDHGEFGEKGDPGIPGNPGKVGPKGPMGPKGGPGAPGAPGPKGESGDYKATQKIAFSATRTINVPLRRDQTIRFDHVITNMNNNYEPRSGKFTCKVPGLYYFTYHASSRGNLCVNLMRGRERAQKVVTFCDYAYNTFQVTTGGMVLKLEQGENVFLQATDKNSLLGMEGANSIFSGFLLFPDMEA
T1 sequence (P02747 29-245 limits assumed, chain 3 of 3): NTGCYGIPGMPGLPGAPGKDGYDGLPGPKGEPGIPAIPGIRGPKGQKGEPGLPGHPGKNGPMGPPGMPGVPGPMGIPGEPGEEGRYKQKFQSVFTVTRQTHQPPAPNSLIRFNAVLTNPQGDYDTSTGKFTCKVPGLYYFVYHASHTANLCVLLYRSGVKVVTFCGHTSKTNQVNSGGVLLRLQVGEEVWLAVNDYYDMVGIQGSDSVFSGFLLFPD
T5 sequence (P08637 17-208 F176V): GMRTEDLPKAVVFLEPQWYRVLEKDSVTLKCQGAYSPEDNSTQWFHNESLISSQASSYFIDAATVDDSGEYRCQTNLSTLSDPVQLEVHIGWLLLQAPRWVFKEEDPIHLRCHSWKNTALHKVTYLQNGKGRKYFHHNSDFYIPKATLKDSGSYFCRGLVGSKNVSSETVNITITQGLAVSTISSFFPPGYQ
T14 sequence (P55899 24-297 limits assumed, chain 1 of 2): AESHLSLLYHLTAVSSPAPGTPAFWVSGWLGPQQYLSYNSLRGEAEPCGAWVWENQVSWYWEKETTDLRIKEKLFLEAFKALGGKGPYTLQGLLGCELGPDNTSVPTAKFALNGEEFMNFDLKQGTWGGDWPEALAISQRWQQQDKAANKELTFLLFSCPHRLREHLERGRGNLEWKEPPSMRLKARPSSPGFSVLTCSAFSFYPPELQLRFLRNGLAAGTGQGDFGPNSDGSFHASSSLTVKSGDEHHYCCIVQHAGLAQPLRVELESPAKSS
T14 sequence (P61769 21-119 limits assumed, chain 2 of 2): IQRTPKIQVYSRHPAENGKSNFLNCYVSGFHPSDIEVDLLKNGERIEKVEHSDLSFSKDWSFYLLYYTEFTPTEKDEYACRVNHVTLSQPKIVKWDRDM
T2 sequence (P12314 16-288 limits assumed): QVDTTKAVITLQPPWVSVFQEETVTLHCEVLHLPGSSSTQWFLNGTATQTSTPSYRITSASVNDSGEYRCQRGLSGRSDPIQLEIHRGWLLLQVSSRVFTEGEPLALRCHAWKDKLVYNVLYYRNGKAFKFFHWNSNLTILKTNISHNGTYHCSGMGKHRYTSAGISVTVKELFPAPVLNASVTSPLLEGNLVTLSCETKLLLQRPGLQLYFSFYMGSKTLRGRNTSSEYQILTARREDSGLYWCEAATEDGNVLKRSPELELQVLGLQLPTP
T12 sequence (P08637 17-254 F176V): as the sequence (P08637 17-254) above, with F160V counted along it

B1: TSC 1007 (other)
chain: EPKSSDKTHTCPPCPAPPAAAPSVFLFPPKPKDTLMISRTPEVTCVVVDVSHEDPEVKFNWYVDGVEVHNAKTKPREEQYNSTYRVVSVLTVLHQDWLNGKEYKCAVSNKALPAPIEKTISKAKGQPREPQVYTLPPSRDELTKNQVSLTCLVKGFYPSDIAVEWESNGQPENNYKTTPPVLDSDGSFFLYSKLTVDKSRWQQGNVFSCSVMHEALHNHYTQKSLSLSPG
notes: IgG1 Fc with E233P, L234A, L235A, deletion of G236, G237A, K322A (EU); also called PAAdel TSC01007
Regarding B1, the binding result in test [1], in test [2], in test [3], in test [4], in [5] and in test [6] was “no binding” throughout. The binding result in test [7] was “no binding”; in test [8], “no binding (tested: 1 to 1000 nM)”; in test [9] it was “no binding (tested: 1 to 1000 nM)”; in [10], “no binding (tested: 1 to 1000 nM)”; in test [11] it was “no binding (tested: 1 to 1000 nM)”; in test [12], “no binding (tested: 1 to 1000 nM)”. The binding result was “no binding (tested: 1 to 1000 nM)” in [13] and “binds” in [15]. Further, in test [14], the Kd worked out at 19 nM.

B2: TSC 1004 (other)
chain: EPKSSDKTHTCPPCPAPPVAGAPSVFLFPPKPKDTLMISRTPEVTCVVVDVSHEDPEVKFNWYVDGVEVHNAKTKPREEQYNSTYRVVSVLTVLHQDWLNGKEYKCAVSNKALPAPIEKTISKAKGQPREPQVYTLPPSRDELTKNQVSLTCLVKGFYPSDIAVEWESNGQPENNYKTTPPVLDSDGSFFLYSKLTVDKSRWQQGNVFSCSVMHEALHNHYTQKSLSLSPG
notes: IgG1 Fc with E233P, L234V, L235A, G237A, K322A (EU); also called PVAG TSC01004
On to B2, for which the binding result in [1], in test [2], in test [3], in [4], in test [5] and in [6] was “no binding” in each case. Moreover, the binding result is “no binding” in [7]; “no binding (tested: 1 to 1000 nM)” in test [8]; “no binding (tested: 1 to 1000 nM)” in test [9]; “no binding (tested: 1 to 1000 nM)” in test [10]; “no binding (tested: 1 to 1000 nM)” in test [11]; “no binding (tested: 1 to 1000 nM)” in test [12]. For the same molecule, the binding result in test [13] is “no binding (tested: 1 to 1000 nM)”; in test [15], “binds”. For the same molecule, the Kd in test [14] came to 20 nM.

B3: TSC 1006 (other)
chain: B2 chain with V19A
notes: IgG1 Fc with E233P, L234A, L235A, G237A, K322A (EU); also called PAAG TSC01006
In the case of B3, the binding result in [1], in test [2], in test [3], in test [4], in test [6] and in test [7] was “no binding” throughout. Moreover, the binding result is recorded as “no binding (tested: 1 to 1000 nM)” in [8]; “no binding (tested: 1 to 1000 nM)” in [9]; “no binding (tested: 1 to 1000 nM)” in test [10]; “no binding (tested: 1 to 1000 nM)” in test [11]; “no binding (tested: 1 to 1000 nM)” in test [13]; “binds” in test [15]. For the same molecule, the binding result in test [16] is “binds”. Further, the Kd in [14] was 19 nM.
